# Measurements published in paper PMC10320017.
# Target: SARS-CoV-1 S/native spike ectodomain (with C-terminal foldon and His tag) (SARS coronavirus Tor2 (SARS-CoV-1))
# Test: negative-stain EM
substance,measurement,value
SARS-CoV-1 S/native spike ectodomain (with C-terminal foldon and His tag) (domain or fragment),stoichiometry N,3
